Source: publication PMC3868960

Biological target: tumor necrosis factor-related apoptosis-inducing ligand (TRAIL) (human) (UniProt P50591)
Test: non-reducing SDS-PAGE

tumor necrosis factor-related apoptosis-inducing ligand (TRAIL) (from UniProt P50591 1-281)
percent dimer: 27.2% | percent monomer: 70.1% | percent trimer: 2.62%
